Our source for the Km and kcat values is paper PMC13062060, “Calcium activation mechanism of a noncanonical aromatic L-amino acid decarboxylase from psilocybin mushroom Psilocybe cubensis” (Communications Biology, 2026).

As usually defined, the kcat is the maximal rate divided by the concentration of active sites.

For this data set, the system named is N[C@@H](Cc1ccccc1)C(=O)O. Put plainly: LC-MS of phenylethylamine formed, Michaelis-Menten fit. The data set is classed as biochemical, Psilocybe cubensis. To be noted: 30 mM calcium acetate (activating), 50 mM Tris pH 8.0, room temperature, brackets 95% CI, also measured in 30 mM NaCl. An excerpt:
LC-MS of phenylethylamine formed, Michaelis-Menten fit on PcncAAAD (noncanonical aromatic L-amino acid decarboxylase)
For the substance “PcncAAAD (noncanonical aromatic L-amino acid decarboxylase) (Psilocybe cubensis)”, the Km was 88 [49–154] µM and the turnover number (kcat) was 0.51 s⁻¹.
On to “PcncAAAD (noncanonical aromatic L-amino acid decarboxylase) (Psilocybe cubensis; D825A/D931A/D971A/D973A/E637A/E638A/E824A/E972A)”, for which the Km was 586 [359–979] µM and the kcat was determined as 0.044 s⁻¹.
As for “PcncAAAD (noncanonical aromatic L-amino acid decarboxylase) (Psilocybe cubensis; D825A/D931A/E824A)”, the Km was 174 [105–287] µM and the catalytic constant (kcat) turned out to be 0.41 s⁻¹.
Take “PcncAAAD (noncanonical aromatic L-amino acid decarboxylase) (Psilocybe cubensis; D971A/D973A/E637A/E638A/E972A)”: the Km is 513 [319–839] µM and the turnover number (kcat) turned out to be 0.073 s⁻¹.
